These results are taken from the supplement of paper PMC9170038.

The test system of data set [1] is MS2 coat protein. The data set can be described thus: apparent KD of MS2 coat protein, switch OFF state (with FMN for OFF switches, without FMN for ON switches); designed switch direction (-1 OFF switch, 1 ON switch): -1; higher = weaker reporter binding. Conditions: FMN input: 0 or 200 uM; Eterna round: R93 (includes R88 designs). The method in brief:
(§1)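 Apparent KD per design is the median of normalised cluster binding-curve fits. Designed RNA switches transcribed on-chip from Illumina sequencing clusters were titrated with SNAP-549-labelled MS2 coat protein in twofold steps from 0.7 or 1.5 nM to 3 µM, with 0.8–1.5 h down to 10–20 min per step. Buffer: 100 mM Tris-HCl pH 7.5, 80 mM KCl, 4 mM MgCl2, without or with constant ligand.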

For data set [2], the system named is MS2 coat protein. The data set can be described thus: apparent KD of MS2 coat protein, switch ON state; designed switch direction (-1 OFF switch, 1 ON switch): -1; higher = weaker reporter binding. The note with it: FMN input: 0 or 200 uM; Eterna round: R93 (includes R88 designs). Put shortly:
as §1

“AGAAAGUCAGGAUAUACGAAAAAGAAAAAAGACGAGAACGGACAUGAGGAUCACCCAUGUAGAAGGGACAAGAA [Diamond 14]”: the “apparent KD of MS2 coat protein” value in the data set with MS2 coat protein [1] was 51.4 nM; in the data set with MS2 coat protein [2], 66.4 nM.
Consider “AGAAAGUCAGGAUAUACGAAUAAGAAUAAAGACGAGAUCGGACAUGAGGAUCACCCAUGUAGAAGGGACAAGAA [Diamond 17]”, for which the “apparent KD of MS2 coat protein” value is 74.7 nM in the data set on MS2 coat protein [1] and 121 nM in the data set with MS2 coat protein [2].
Consider “AGAACACAUGAGGAUCACCCAUGUCAGGAUAUUCAAACAAAAACAAAACAAAACAAACGAAGAAGGGACAAAAG [May 2]”, for which the “apparent KD of MS2 coat protein” value in the data set with MS2 coat protein [1] is 36 nM; in the data set on MS2 coat protein [2], 32.3 nM.
For “AGAUGACAUGAGGAUCACCCAUGUAAGGAUAUACGAGUAGGAGAAUAAAAUGAUAGAAGUAGAAGGUACGUAGA ['Exclusion 1' Lab (2)]” the same measures were 58.1 nM and 68 nM.
In the case of “AGCAAGUGAGGAUAUCUGGAUAGGAAAAAGAAAACCUAUCCAGAGAAGGCACAUGAGGAUCACCCAUGUAAAAA [JL cataway mod 7]”, the results for the “apparent KD of MS2 coat protein” value in the data set on MS2 coat protein [1] and in the data set on MS2 coat protein [2] were 41.4 nM and 39.1 nM, respectively.
For “AGCUACUGAGGAUAUACGAACAUGUCAAAAGACGUAAGGGAACAUGAGGAUCACCCAUGUAGAAGGCAGUAGCA [Diamond 49]”, the figures for the “apparent KD of MS2 coat protein” value with MS2 coat protein [1] and in the data set on MS2 coat protein [2] were 91.9 nM and 44.5 nM, respectively.
With “AGCUAGUCAGGAUAUACGAAAAUGCUAGAAGACGUAAGGGAACAUGAGGAUCACCCAUGUAGAAGGGACUAGCA [Diamond 46]”, the “apparent KD of MS2 coat protein” value in the data set with MS2 coat protein [1] is 30.4 nM; in the data set with MS2 coat protein [2], 21.9 nM.
“AGCUAGUCAGGAUAUACGAACAAGAAAAAAGACGAGAACGGACAUGAGGAUCACCCAUGUAGAAGGGACUAGCA [Diamond 9]”: the “apparent KD of MS2 coat protein” value with MS2 coat protein [1] was determined as 26.3 nM; in the data set on MS2 coat protein [2] it was 23.8 nM.
Consider “AGCUAGUGAGGAUAUACAAGAAUAUAAACGAACAUAAAGGGACAUGAGGAUCACCCAUGUAGAAGGCACUAGCA [Diamond 73]”, for which the “apparent KD of MS2 coat protein” value in the data set with MS2 coat protein [1] came to 152 nM; with MS2 coat protein [2], 42.6 nM.
Turning to “AGCUAGUGAGGAUAUACGAACAUGUCAAAAGACGUGAAGGGACAUGAGGAUCACCCAUGUAGAAGGCGCUAGCA [JL 74% mod]”, the “apparent KD of MS2 coat protein” value was determined as 157 nM with MS2 coat protein [1] and 53.4 nM with MS2 coat protein [2].
For “AGCUGGUCAGGAUAUGCGUGAAGAAUAAAACAAAUAACAACGCAGAAGGGACAUGAGGAUCACCCAUGUCAGCA [May 50]” the same measures were 20.3 nM and 23.9 nM.
For “AGGAAACAUGAGGAUCACCCAUGUCAGGAUAUACAAAAGAAAAGAAAAGAAAGAAGAAGUAGAAGGGACACGAA [Double Falcon]”, the results for the “apparent KD of MS2 coat protein” value in the data set on MS2 coat protein [1] and in the data set with MS2 coat protein [2] were 22.5 nM and 25.1 nM, respectively.
As for “AGGAAACAUGAGGAUCACCCAUGUGAGGAUAUUGAAAAGAAAAGAAAAGAAAGAAGAACAAGAAGGUACAAGAA [Nyuserre Ini]”, the “apparent KD of MS2 coat protein” value with MS2 coat protein [1] was 27.3 nM; with MS2 coat protein [2], 22.3 nM.
As to “AGGUGACAUGAGGAUCACCCAUGUCAGGAUAUAUACACCACCGGCGUGAAGCCGGCGGAUAGAAGGGACAAAAU [Anesar]”, the “apparent KD of MS2 coat protein” value was 18.2 nM with MS2 coat protein [1] and 15.6 nM with MS2 coat protein [2].
For “AGUAUGCGAGGAUAUACAUGAGGAUCACCCAUGUGAGAGAUAAAAGUGAGAAAGAAAAGUAGAAGGCGCGUACA [JL Lego Mod 21]” the same measures were 326 nM and 50.7 nM.
For “AGUAUGCGAGGAUAUACAUGAGGAUCACCCAUGUGAGAGAUAAGAGUGAGAAAGACAAGUAGAAGGCGCGUACA [JL Lego Mod 25]”, the “apparent KD of MS2 coat protein” value is 71.7 nM with MS2 coat protein [1] and 78.4 nM in the data set with MS2 coat protein [2].
